Experiment [1] has as its target T1, SNAP25206, full-length SNAP25 (rat) (rat, UniProt P60881 1-206). The experiment is described as follows: Western blot, rat embryonic cortical cell lysates +/- BoNT/A.
The target of experiment [2] is T2, SNAP25206, full-length SNAP25 (human) (human, UniProt P60880 1-206). The experiment is described as follows: IHC, human back skin biopsies +/- onabotulinumtoxinA (FIG. 9).
The target in experiment [3] is SNAP25197, BoNT/A-cleaved SNAP25 (human) (human, UniProt P60880 1-197). The experiment is described as follows: Western blot, SiMa cell lysates +/- BoNT/A.
Chain of SNAP25197, BoNT/A-cleaved SNAP25 (human) (P60880 1-197 limits assumed): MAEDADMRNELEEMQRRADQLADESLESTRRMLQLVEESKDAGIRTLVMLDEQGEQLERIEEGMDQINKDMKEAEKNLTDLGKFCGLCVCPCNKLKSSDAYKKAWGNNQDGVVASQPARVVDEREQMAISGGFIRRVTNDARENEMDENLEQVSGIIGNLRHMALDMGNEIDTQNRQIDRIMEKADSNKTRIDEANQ
For experiment [4], the target named is SNAP25197, BoNT/A-cleaved SNAP25 (rat) (rat, UniProt P60881 1-197). Description: Western blot, summary (rat cortical lysates; SiMa lysates also run).
Chain of SNAP25197, BoNT/A-cleaved SNAP25 (rat) (P60881 1-197 limits assumed): as the sequence (P60880 1-197 limits assumed) above
Experiment [5] deals with T2, SNAP25206, full-length SNAP25 (human). Description: Western blot, SiMa cell lysates treated with BoNT/A, BoNT/C, BoNT/E or no toxin.
In experiment [6] the target is T3, SNAP25198, BoNT/C-cleaved SNAP25 (human) (human, UniProt P60880 1-198).
T3 construct: range 1-198
T3 sequence (P60880 1-198 limits assumed): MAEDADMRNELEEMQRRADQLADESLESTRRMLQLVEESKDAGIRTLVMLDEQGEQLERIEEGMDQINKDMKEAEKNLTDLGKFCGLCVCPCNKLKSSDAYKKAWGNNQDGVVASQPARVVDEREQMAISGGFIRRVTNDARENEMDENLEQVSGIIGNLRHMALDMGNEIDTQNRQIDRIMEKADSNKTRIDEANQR
Described as above.

Experiment [7] addresses T4, SNAP25180, BoNT/E-cleaved SNAP25 (human) (human, UniProt P60880 1-180).
T4 construct: range 1-180
Described as above.

Experiment [8] addresses T1, SNAP25206, full-length SNAP25 (rat). Description: IHC, vehicle-treated rat glabrous skin (FIG. 8F-J).

T1 sequence (P60881 whole entry): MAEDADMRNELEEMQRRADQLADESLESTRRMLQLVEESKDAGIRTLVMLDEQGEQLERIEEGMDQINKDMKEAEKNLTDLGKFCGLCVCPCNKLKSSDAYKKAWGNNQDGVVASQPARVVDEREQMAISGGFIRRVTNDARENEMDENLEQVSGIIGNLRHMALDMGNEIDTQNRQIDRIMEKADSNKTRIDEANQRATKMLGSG
T2 sequence (P60880 whole entry): as the sequence (P60881 whole entry) above
T4 sequence (P60880 1-180 limits assumed): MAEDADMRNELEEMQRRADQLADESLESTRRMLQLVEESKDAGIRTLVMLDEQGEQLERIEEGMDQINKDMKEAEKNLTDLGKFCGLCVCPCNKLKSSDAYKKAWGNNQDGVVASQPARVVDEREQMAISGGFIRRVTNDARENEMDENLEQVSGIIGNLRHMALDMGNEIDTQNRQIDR

B1: Ab635 anti-SNAP25197 rMAb (Murine-3C1A5) (antibody)
heavy: QVKLQESGAELVKPGASVKISCKASGYTFTDHSIHWVKQKPGQGLEWIGYLFPGNGNFEYNEKFKGKATLTADKSSSTVYMYLNSLTSEDSAVYFCKRMGYWGQGTTVTVSSAKTTPPSVYPLAPGSAAQTNSMVTLGCLVKGYFPEPVTVTWNSGSLSSGVHTFPAVLESDLYTLSSSVTVPSSPRPSETVTCNVAHPASSTKVDKKIVPRDCGCKPCICTVPEVSSVFIFPPKPKDVLTITLTPKVTCVVVDISKDDPEVQFSWFVDDVEVHTAQTQPREEQFNSTFRSVSELPIMHQDWLNGKEFKCRVNSAAFPAPIEKTISKTKGRPKAPQVYTIPPPKEQMAKDKVSLTCMITDFFPEDITVEWQWNGQPAENYKNTQPIMNTNGSYFVYSKLNVQKSNWEAGNTFTCSVLHEGLHNHHTEKSLSHSPGK
light: not shown
B1: the binding result in experiment [1] and in experiment [2] was “no binding” in each case.

B2: Ab632 anti-SNAP25197 rMAb (Human-3C1A5) (antibody)
heavy: not shown
light: DVVMTQTPLTLSVTIGQPASISCKSSQSLLNTNGKTYLTWLIQRPGQSPQRLIYLVSKLDSGVPDRFSGSGSGTDFTLKISRVEAEDLGVYYCLQSSHFPFTFGSGTKLEIKRTVAAPSVFIFPPSDEQLKSGTASVVCLLNNFYPREAKVQWKVDNALQSGNSQESVTEQDSKDSTYSLSSTLTLSKADYEKHKVYACEVTHQGLSSPVTKSFNRGEC
With B2, the binding result in experiment [3] is on record as “binds”; in experiment [1], “no binding”; in experiment [4] it was “binds”; in experiment [5] it was “no binding”; in experiment [6] it was “no binding”; in experiment [7], “no binding”.

B3: original non-recombinant 3C1A5 mAb purified from ascites (antibody, V domains shown)
VH: QVKLQESGAELVKPGASVKISCKASGYTFTDHSIHWVKQKPGQGLEWIGYLFPGNGNFEYNEKFKGKATLTADKSSSTVYMYLNSLTSEDSAVYFCKRMGYWGQGTTVTVSS
VL: DVVMTQTPLTLSVTIGQPASISCKSSQSLLNTNGKTYLTWLIQRPGQSPQRLIYLVSKLDSGVPDRFSGSGSGTDFTLKISRVEAEDLGVYYCLQSSHFPFTFGSGTKLEIK
For B3, the binding result in experiment [8] is “no binding”.

(Values after patent publication US20190317095A1 (ALLERGAN, published 2019).)
